Test results taken from article PMC12713037, “FBXO44 Regulates FOXP1 Degradation Through AURKA‐Dependent Phosphorylation to Promote Colorectal Cancer Progression” (Advanced Science, 2025).

Assays:
[1] = target: FBXO44 (F-box only protein 44) (UniProt Q9H4M3); assay: co-IP with anti-Flag, Western blot; details: reference: Myc-FOXP1 wild type with His-AURKA; sites S440
[2] = target: T1, Purified Myc-FOXP1 (UniProt Q9H334 1-677); assay: pull-down; GST-FBXO44 coupled to glutathione-Sepharose beads incubated with purified Myc-FOXP1; retained proteins analysed by immunoblot; details: both partners purified
T1 construct: Forkhead box protein P1 (FOXP1), Myc-tagged, purified for the GST pull-down; source: purified
T1 sequence (looked up): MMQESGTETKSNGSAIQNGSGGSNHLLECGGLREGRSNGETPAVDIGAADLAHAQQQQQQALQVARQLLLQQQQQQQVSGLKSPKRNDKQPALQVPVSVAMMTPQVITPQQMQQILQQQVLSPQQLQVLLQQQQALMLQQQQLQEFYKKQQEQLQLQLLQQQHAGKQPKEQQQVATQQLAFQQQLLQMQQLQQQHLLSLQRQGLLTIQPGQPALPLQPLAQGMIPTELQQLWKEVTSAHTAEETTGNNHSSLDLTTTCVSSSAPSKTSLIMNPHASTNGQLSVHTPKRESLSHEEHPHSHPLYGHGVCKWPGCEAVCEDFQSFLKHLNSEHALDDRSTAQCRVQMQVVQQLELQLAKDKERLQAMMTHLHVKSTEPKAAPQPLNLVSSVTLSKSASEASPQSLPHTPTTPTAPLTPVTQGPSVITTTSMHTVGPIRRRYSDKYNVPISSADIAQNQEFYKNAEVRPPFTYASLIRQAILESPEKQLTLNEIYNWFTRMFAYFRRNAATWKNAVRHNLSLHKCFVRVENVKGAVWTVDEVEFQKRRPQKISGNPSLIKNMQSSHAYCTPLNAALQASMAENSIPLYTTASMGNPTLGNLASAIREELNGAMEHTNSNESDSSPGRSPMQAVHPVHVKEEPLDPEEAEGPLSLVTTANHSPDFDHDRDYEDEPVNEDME

## FOXP1 (Forkhead box protein P1) (from UniProt Q9H334) Myc-FOXP1 S440A with His-AURKA
[1]
  binding against the reference: weaker

B1: Recombinant GST-FBXO44 (natural protein, UniProt Q9H4M3 1-255, looked up)
chain: MAVGNINELPENILLELFTHVPARQLLLNCRLVCSLWRDLIDLVTLWKRKCLREGFITEDWDQPVADWKIFYFLRSLHRNLLHNPCAEEGFEFWSLDVNGGDEWKVEDLSRDQRKEFPNDQVKKYFVTSYYTCLKSQVVDLKAEGYWEELMDTTRPDIEVKDWFAARPDCGSKYQLCVQLLSSAHAPLGTFQPDPATIQQKSDAKWREVSHTFSNYPPGVRYIWFQHGGVDTHYWAGWYGPRVTNSSITIGPPLP
notes: F-box only protein 44 (FBXO44) fused to GST; source: purified from bacteria
[2]
  binding result: binds
